This test addresses T1, tumor necrosis factor receptor-associated factor 2 (TRAF2), endogenous, in human cardiac tissue (human, UniProt Q12933 2-501).
T1 construct: Immunoprecipitated from human cardiac tissue or tissue culture lysates with a TRAF2 antibody (BD Pharmingen)
T1 sequence (looked up): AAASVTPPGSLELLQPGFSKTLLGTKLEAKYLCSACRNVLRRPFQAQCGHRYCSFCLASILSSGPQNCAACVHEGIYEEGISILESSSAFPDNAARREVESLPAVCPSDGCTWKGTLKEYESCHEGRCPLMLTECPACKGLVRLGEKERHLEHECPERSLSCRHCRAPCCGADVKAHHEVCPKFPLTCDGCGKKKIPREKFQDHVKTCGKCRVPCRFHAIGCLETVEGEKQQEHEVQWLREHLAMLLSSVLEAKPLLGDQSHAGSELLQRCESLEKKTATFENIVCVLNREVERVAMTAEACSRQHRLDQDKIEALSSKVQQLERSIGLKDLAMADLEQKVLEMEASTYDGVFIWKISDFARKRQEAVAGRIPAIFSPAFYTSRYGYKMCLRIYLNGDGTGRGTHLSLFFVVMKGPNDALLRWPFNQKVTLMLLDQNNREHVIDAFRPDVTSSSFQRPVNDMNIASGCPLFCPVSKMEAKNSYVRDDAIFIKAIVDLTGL
Kind of test: co-IP of LV myocardial lysates, Western blot (FIG. 2A). On the procedure: Human cardiac tissue was lysed in the lysis buffer containing 20 mM Tris (pH 7.5), 135 mM NaCl, 2 mM ethylenediaminetetraacetic acid (EDTA), 2 mM dithiothreitol (DTT), 25 mM β-glycerophosphate, 2 mM sodium pyrophosphate, 10% glycerol, 1% Triton X-100, 1 mM sodium orthovanadate, 10 mM NaF and 1 mM phenylmethylsulfonyl fluoride (PMSF) supplemented with complete protease inhibitor cocktail (Roche Applied Science, Indianapolis, Ind., USA) at 4 C as described (Aharinejad et al., 2005). Lysates were centrifuged (15 000 g) at 4 C for 15 min. For identify GSTP1-TRAF2 complexes formation proteins (500 μg) were immunoprecipitated with TRAF2 antibody (0.5 μg, BD Pharmingen, San Diego, Calif.). […]
Protein lysates (50 μg/lane) were separated by SDS-PAGE (10%) prior to electrophoretic transfer onto a Nitrocellulose membrane (Bio-Rad, Hercules, Calif.) as described (Aharinejad et al., 2005). […] Protein loading was assessed by Ponceau S staining and immunodetection was performed by chemiluminescence (Supersignal-West-Pico, Pierce, Rockford, Bands were quantified by ImageQuant software and specific protein signals were normalized to loading controls and expressed as arbitrary units. The average value of three measurements in each sample was used for data analysis.

B1: Glutathione S-transferase P1 (GSTP1), endogenous, in human left ventricular myocardial lysates (enzyme)
chain: PPYTVVYFPVRGRCAALRMLLADQGQSWKEEVVTVETWQEGSLKASCLYGQLPKFQDGDLTLYQSNTILRHLGRTLGLYGKDQQEAALVDMVNDGVEDLRCKYISLIYTNYEAGKDDYVKALPGQLKPFETLLSQNQGGKTFIVGDQISFADYNLLDLLLIHEVLAPGCLDAFPLLSAYVGRLSARPKLKAFLASPEYVNLPINGNGKQ
notes: also called GST-pi; GSTP1-1
Regarding B1, the binding result is recorded as “binds”.

The values are drawn from patent US20120213761A1 (MEDIZINISCHE UNIVERSITAET WIEN, published 2012).
